Laboratory results reported in publication PMC4231741.

Molecular target: MspJI wild type (modification-dependent restriction endonuclease)
Assay: crystal structure

Substance: MspJI wild type (modification-dependent restriction endonuclease) (enzyme)
- stoichiometry N: 4
